We go through 94 variants from the supplement of paper PMC10567573.

Sequences and labels used below:
B1: PPEF2 (parent)
chain: FIPSSHNDRDFLTRIFTEDRFAQD
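Further: lentivirally expressed fusions sorted by FACS into six bins by GFP to DsRed ratio, PSI derived from sequencing read proportions per bin multiplied by bin number.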

Variants of B1 are the subject of this data set. In words: protein stability index of a GFP-peptide fusion (GPS, HEK-293T) (PSI 1-6); higher = more stable. The conditions noted are these: c terminus: a fixed tail appended.
Regarding FIPSSHNDRDFLNRIFTEDRFAQD [T13N], the protein stability index stood at 1.7.

As to FIPSSHNDRDFLHRIFTEDRFAQD [T13H], the protein stability index was 1.6.

For the variant FIPSSHNDRDFLDRIFTEDRFAQD [T13D], the protein stability index amounted to 1.83.

On to FIPSSHNDRDFLERIFTEDRFAQD [T13E], for which the protein stability index turned out to be 2.

Consider FIPSSHNDRDFLLRIFTEDRFAQD [T13L], for which the protein stability index amounted to 3.13.

In the case of FIPSSHNDRDFLQRIFTEDRFAQD [T13Q], the protein stability index was 1.55.

For FIPSSHNDRDFLPRIFTEDRFAQD [T13P], the protein stability index worked out at 1.82.

Regarding RIPSSHNDRDFLTRIFTEDRFAQD [F1R], the protein stability index turned out to be 3.75.

GIPSSHNDRDFLTRIFTEDRFAQD [F1G]: the protein stability index turned out to be 4.38.

As for LIPSSHNDRDFLTRIFTEDRFAQD [F1L], the protein stability index was 3.73.

AIPSSHNDRDFLTRIFTEDRFAQD [F1A]: the protein stability index stood at 4.31.

As to SIPSSHNDRDFLTRIFTEDRFAQD [F1S], the protein stability index turned out to be 4.4.

As for VIPSSHNDRDFLTRIFTEDRFAQD [F1V], the protein stability index came out at 3.88.

Turning to FIPSSHNDRDFLTRIFTEDRDAQD [F21D], the protein stability index turned out to be 2.52.

Regarding FIPSSHNDRDFLTRIFTEDRLAQD [F21L], the protein stability index was determined as 2.27.

Regarding FIPSSHNDRDFLTCIFTEDRFAQD [R14C], the protein stability index was 1.78.

For the variant FIPSSHNDRDFLTHIFTEDRFAQD [R14H], the protein stability index came to 2.04.

FIPSSHNDRDFLTDIFTEDRFAQD [R14D]: the protein stability index was determined as 2.5.

As to FIPSSHNDRDFLTEIFTEDRFAQD [R14E], the protein stability index is 2.34.

Turning to FIPSSHNDRDFLTAIFTEDRFAQD [R14A], the protein stability index was determined as 1.58.

As to FIPSSHNDRDFLTYIFTEDRFAQD [R14Y], the protein stability index worked out at 1.7.

FIPSSHNDRDFLTTIFTEDRFAQD [R14T]: the protein stability index was 2.36.

For the variant FNPSSHNDRDFLTRIFTEDRFAQD [I2N], the protein stability index came to 1.96.

Take FSPSSHNDRDFLTRIFTEDRFAQD [I2S]: the protein stability index turned out to be 2.2.

For the variant FIPSSHNDRDFLTRIFTEDFFAQD [R20F], the protein stability index worked out at 2.24.

As for FIPSSHNDRDFLTRIFTEDKFAQD [R20K], the protein stability index worked out at 2.11.

With FIPSSHNDRDFLTRIFTEDSFAQD [R20S], the protein stability index stood at 2.65.

FIPSSHNDRDFLTRIFTEDAFAQD [R20A]: the protein stability index was 2.05.

Consider FIPSSHNDRDFLTRIFTEDPFAQD [R20P], for which the protein stability index came to 2.41.

As to FIPSSHNDRDFLTRIFTEDTFAQD [R20T], the protein stability index worked out at 1.47.

In the case of FIPSSHNDRDFLTRIFTEDVFAQD [R20V], the protein stability index stood at 1.99.

For FIPSSHNDRDFLTRIFTEDWFAQD [R20W], the protein stability index is 2.54.

For FIPSSHNDRDFPTRIFTEDRFAQD [L12P], the protein stability index is 1.74.

FIPSSHNDRDFFTRIFTEDRFAQD [L12F]: the protein stability index was found to be 2.18.

Regarding FIPSSHNDRKFLTRIFTEDRFAQD [D10K], the protein stability index came out at 1.89.

In the case of FIPSSHNDRPFLTRIFTEDRFAQD [D10P], the protein stability index came to 2.14.

On to FIPSSHNDRVFLTRIFTEDRFAQD [D10V], for which the protein stability index worked out at 3.75.

In the case of FIPSSHNDRDFLTRIPTEDRFAQD [F16P], the protein stability index was 2.96.

As for FIPSSHNDRDFLTRISTEDRFAQD [F16S], the protein stability index came to 1.72.

As to FIPSSHNDRDFLTRIRTEDRFAQD [F16R], the protein stability index came out at 1.88.

Turning to FIPSSHNDRDFLTRIVTEDRFAQD [F16V], the protein stability index is 2.6.

As for FIPSSHNDRDFLTRIITEDRFAQD [F16I], the protein stability index is 1.83.

With FIPSSHNDRDFLTRIHTEDRFAQD [F16H], the protein stability index turned out to be 1.69.

Take FIPSSHNDRDFLTRIFTEDRFAQH [D24H]: the protein stability index is 3.06.

Turning to FIPSSHNIRDFLTRIFTEDRFAQD [D8I], the protein stability index was 1.68.

Regarding FIPSSHNYRDFLTRIFTEDRFAQD [D8Y], the protein stability index was 2.55.

For FIPSSHNERDFLTRIFTEDRFAQD [D8E], the protein stability index was 1.53.

For FIPSSHNSRDFLTRIFTEDRFAQD [D8S], the protein stability index came out at 1.3.

As for FIPSSHNGRDFLTRIFTEDRFAQD [D8G], the protein stability index stood at 2.51.

With FIPSSHNDRDFLTRYFTEDRFAQD [I15Y], the protein stability index stood at 2.22.

For FIPSSHNDRDFLTRCFTEDRFAQD [I15C], the protein stability index amounted to 3.07.

For the variant FIPSSANDRDFLTRIFTEDRFAQD [H6A], the protein stability index is 1.71.

For FIPSSTNDRDFLTRIFTEDRFAQD [H6T], the protein stability index was found to be 1.38.

On to FIPSSKNDRDFLTRIFTEDRFAQD [H6K], for which the protein stability index was 2.23.

As to FIPSSPNDRDFLTRIFTEDRFAQD [H6P], the protein stability index worked out at 1.49.

Regarding FIPSSHNDRDFLTRIFTETRFAQD [D19T], the protein stability index is 2.8.

FIPSSHNDRDFLTRIFTEPRFAQD [D19P]: the protein stability index is 1.99.

For FIPSSHNDRDFLTRIFTEWRFAQD [D19W], the protein stability index turned out to be 1.99.

As for FIPSSHNDRDFLTRIFTEVRFAQD [D19V], the protein stability index worked out at 2.14.

As for FIPSSHNDRDFLTRIFTEGRFAQD [D19G], the protein stability index amounted to 2.46.

As to FIPSSHNDIDFLTRIFTEDRFAQD [R9I], the protein stability index was 1.76.

FIPSSHNDADFLTRIFTEDRFAQD [R9A]: the protein stability index worked out at 2.23.

With FIPSSHNDLDFLTRIFTEDRFAQD [R9L], the protein stability index came to 1.81.

In the case of FIPSSHNDRDFLTRIFTEDRFLQD [A22L], the protein stability index came to 2.

Take FIPSSHNDRDFLTRIFTEDRFQQD [A22Q]: the protein stability index amounted to 2.15.

Regarding FIPSSHNDRDFLTRIFTEDRFFQD [A22F], the protein stability index worked out at 2.07.

With FIPSSHNDRDFLTRIFTYDRFAQD [E18Y], the protein stability index is 1.54.

With FIGSSHNDRDFLTRIFTEDRFAQD [P3G], the protein stability index came out at 2.1.

With FIISSHNDRDFLTRIFTEDRFAQD [P3I], the protein stability index is 2.19.

Turning to FIMSSHNDRDFLTRIFTEDRFAQD [P3M], the protein stability index was found to be 1.34.

Turning to FIPSSHNDRDHLTRIFTEDRFAQD [F11H], the protein stability index was 1.89.

In the case of FIPSSHNDRDKLTRIFTEDRFAQD [F11K], the protein stability index came out at 1.76.

Turning to FIPSSHNDRDELTRIFTEDRFAQD [F11E], the protein stability index was determined as 2.33.

Consider FIPSSHNDRDNLTRIFTEDRFAQD [F11N], for which the protein stability index stood at 2.67.

Take FIPSSHNDRDFLTRIFTEDRFACD [Q23C]: the protein stability index turned out to be 2.27.

Turning to FIPSSHNDRDFLTRIFTEDRFAID [Q23I], the protein stability index was 1.99.

With FIPSSHNDRDFLTRIFTEDRFAHD [Q23H], the protein stability index stood at 2.18.

With FIPSSHNDRDFLTRIFTEDRFAPD [Q23P], the protein stability index was 3.1.

For FIPSSHNDRDFLTRIFPEDRFAQD [T17P], the protein stability index was 1.97.

In the case of FIPSSHNDRDFLTRIFHEDRFAQD [T17H], the protein stability index came to 1.54.

As for FIPSSHNDRDFLTRIFSEDRFAQD [T17S], the protein stability index turned out to be 2.05.

Take FIPVSHNDRDFLTRIFTEDRFAQD [S4V]: the protein stability index was determined as 2.29.

Turning to FIPESHNDRDFLTRIFTEDRFAQD [S4E], the protein stability index stood at 1.63.

Regarding FIPRSHNDRDFLTRIFTEDRFAQD [S4R], the protein stability index came out at 2.14.

Turning to FIPQSHNDRDFLTRIFTEDRFAQD [S4Q], the protein stability index stood at 1.89.

For FIPFSHNDRDFLTRIFTEDRFAQD [S4F], the protein stability index was 1.99.

On to FIPSSHVDRDFLTRIFTEDRFAQD [N7V], for which the protein stability index is 1.8.

On to FIPSSHFDRDFLTRIFTEDRFAQD [N7F], for which the protein stability index came out at 1.89.

Turning to FIPSSHIDRDFLTRIFTEDRFAQD [N7I], the protein stability index came out at 2.11.

Take FIPSYHNDRDFLTRIFTEDRFAQD [S5Y]: the protein stability index is 1.97.

As to FIPSGHNDRDFLTRIFTEDRFAQD [S5G], the protein stability index came out at 1.74.

Regarding FIPSNHNDRDFLTRIFTEDRFAQD [S5N], the protein stability index is 1.92.

For FIPSRHNDRDFLTRIFTEDRFAQD [S5R], the protein stability index worked out at 2.03.

Consider FIPSFHNDRDFLTRIFTEDRFAQD [S5F], for which the protein stability index came to 1.55.
